Source: US9957297B2, “Template-fixed peptidomimetics as inhibitors of FPR1” (POLYPHOR AG, priority 2011, dated 2018)
Bridges are numbered along the chain shown (N, C = ends). [ ]: non-standard residue; d: D form.

T1: Formyl-Peptide Receptor 1 (UniProt P21462 1-350, limits assumed)
T1 sequence (looked up): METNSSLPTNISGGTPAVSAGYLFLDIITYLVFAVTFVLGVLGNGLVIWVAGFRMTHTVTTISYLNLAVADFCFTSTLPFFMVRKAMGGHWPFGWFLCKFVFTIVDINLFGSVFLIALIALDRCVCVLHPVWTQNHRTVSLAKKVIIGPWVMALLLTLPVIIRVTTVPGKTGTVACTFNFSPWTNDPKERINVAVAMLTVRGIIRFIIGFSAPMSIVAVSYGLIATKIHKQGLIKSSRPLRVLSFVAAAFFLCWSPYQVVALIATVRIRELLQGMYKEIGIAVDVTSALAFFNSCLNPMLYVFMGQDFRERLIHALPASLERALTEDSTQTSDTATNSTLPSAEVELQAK

B1: cyclo(-Tyr-His-Lys-Cys-Trp-Gly-^DPro-Trp-Thr-Ile-Cys-Tyr-Gln-Lys-^DPro-Pro-) (peptide)
peptide: cyclo(YHKCWG[dP]WTICYQK[dP]P)
modifications: disulfide 4-11
SMILES: CC[C@H](C)[C@@H]1NC(=O)[C@H]([C@@H](C)O)NC(=O)[C@H](Cc2c[nH]c3ccccc23)NC(=O)[C@H]2CCCN2C(=O)CNC(=O)[C@H](Cc2c[nH]c3ccccc23)NC(=O)[C@@H]2CSSC[C@H](NC1=O)C(=O)N[C@@H](Cc1ccc(O)cc1)C(=O)N[C@@H](CCC(N)=O)C(=O)N[C@@H](CCCCN)C(=O)N1CCC[C@@H]1C(=O)N1CCC[C@H]1C(=O)N[C@@H](Cc1ccc(O)cc1)C(=O)N[C@@H](Cc1c[nH]cn1)C(=O)N[C@@H](CCCCN)C(=O)N2
B2: cyclo(-Tyr-His-Thr-Cys-His-Gly-^DPro-Trp-Thr-Ile-Cys-Tyr-Gln-Lys-^DPro-Pro-) (peptide)
peptide: cyclo(YHTCHG[dP]WTICYQK[dP]P)
modifications: disulfide 4-11
SMILES: CC[C@H](C)[C@@H]1NC(=O)[C@H]([C@@H](C)O)NC(=O)[C@H](Cc2c[nH]c3ccccc23)NC(=O)[C@H]2CCCN2C(=O)CNC(=O)[C@H](Cc2c[nH]cn2)NC(=O)[C@@H]2CSSC[C@H](NC1=O)C(=O)N[C@@H](Cc1ccc(O)cc1)C(=O)N[C@@H](CCC(N)=O)C(=O)N[C@@H](CCCCN)C(=O)N1CCC[C@@H]1C(=O)N1CCC[C@H]1C(=O)N[C@@H](Cc1ccc(O)cc1)C(=O)N[C@@H](Cc1c[nH]cn1)C(=O)N[C@@H]([C@@H](C)O)C(=O)N2
B3: cyclo(-Tyr-His-Trp-Cys-Trp-Gly-^DPro-Trp-Thr-Ile-Cys-Tyr-Gln-Lys-^DPro-Pro-) (peptide)
peptide: cyclo(YHWCWG[dP]WTICYQK[dP]P)
modifications: disulfide 4-11
SMILES: CC[C@H](C)[C@@H]1NC(=O)[C@H]([C@@H](C)O)NC(=O)[C@H](Cc2c[nH]c3ccccc23)NC(=O)[C@H]2CCCN2C(=O)CNC(=O)[C@H](Cc2c[nH]c3ccccc23)NC(=O)[C@@H]2CSSC[C@H](NC1=O)C(=O)N[C@@H](Cc1ccc(O)cc1)C(=O)N[C@@H](CCC(N)=O)C(=O)N[C@@H](CCCCN)C(=O)N1CCC[C@@H]1C(=O)N1CCC[C@H]1C(=O)N[C@@H](Cc1ccc(O)cc1)C(=O)N[C@@H](Cc1c[nH]cn1)C(=O)N[C@@H](Cc1c[nH]c3ccccc13)C(=O)N2
B4: cyclo(-Tyr-His-Trp-Cys-His-Gly-^DPro-Trp-Thr-Ile-Cys-Tyr-Gln-Lys-^DPro-Pro-) (peptide)
peptide: cyclo(YHWCHG[dP]WTICYQK[dP]P)
modifications: disulfide 4-11
SMILES: CC[C@H](C)[C@@H]1NC(=O)[C@H]([C@@H](C)O)NC(=O)[C@H](Cc2c[nH]c3ccccc23)NC(=O)[C@H]2CCCN2C(=O)CNC(=O)[C@H](Cc2c[nH]cn2)NC(=O)[C@@H]2CSSC[C@H](NC1=O)C(=O)N[C@@H](Cc1ccc(O)cc1)C(=O)N[C@@H](CCC(N)=O)C(=O)N[C@@H](CCCCN)C(=O)N1CCC[C@@H]1C(=O)N1CCC[C@H]1C(=O)N[C@@H](Cc1ccc(O)cc1)C(=O)N[C@@H](Cc1c[nH]cn1)C(=O)N[C@@H](Cc1c[nH]c3ccccc13)C(=O)N2
B5: cyclo(-Glu-His-Lys-Cys-His-Gly-^DPro-Trp-Thr-Ile-Cys-Tyr-Glu-Lys-^DPro-Pro-) (peptide)
peptide: cyclo(EHKCHG[dP]WTICYEK[dP]P)
modifications: disulfide 4-11
SMILES: CC[C@H](C)[C@@H]1NC(=O)[C@H]([C@@H](C)O)NC(=O)[C@H](Cc2c[nH]c3ccccc23)NC(=O)[C@H]2CCCN2C(=O)CNC(=O)[C@H](Cc2c[nH]cn2)NC(=O)[C@@H]2CSSC[C@H](NC1=O)C(=O)N[C@@H](Cc1ccc(O)cc1)C(=O)N[C@@H](CCC(=O)O)C(=O)N[C@@H](CCCCN)C(=O)N1CCC[C@@H]1C(=O)N1CCC[C@H]1C(=O)N[C@@H](CCC(=O)O)C(=O)N[C@@H](Cc1c[nH]cn1)C(=O)N[C@@H](CCCCN)C(=O)N2

These binders were tested against T1, Formyl-Peptide Receptor 1 (assay: cell-based or functional assay).

β-Arrestin IC50 [nM] | Binder
71 | B1
178 | B2
89 | B3
177 | B4
165 | B5
